This is an account of results in the PETadex activity labels (doi:10.1002/cbic.202200516).

Holding throughout (settings): 50 °C
Substrate in series [1]: BHET
Substrate in series [2]: PET-02mer
Substrate in series [3]: MHET

B1: unnamed (protein)
chain: MNFPRASRLMQAAVLGGLMAVSAAATAQTNPYARGPNPTAASLEASAGPFTVRSFTVSRPSGYGAGTVYYPTNAGGTVGAIAIVPGYTARQSSIKWWGPRLASHGFVVITIDTNSTLDQPSSRSSQQMAALRQVASLNGTSSSPIYGKVDTARMGVMGWSMGGGGSLISAANNPSLKAAAPQAPWDSSTNFSSVTVPTLIFACENDSIAPVNSSALPIYDSMSRNAKQFLEINGGSHSCANSGNSNQALIGKKGVAWMKRFMDNDTRYSTFACENPNSTRVSDFRTANCS
For B1, in series [1] (part of the chain shown), the Km (usually the concentration of substrate that gives half-maximal velocity) was 1400 µM; the kcat (usually the number of substrate molecules converted per active site and unit of time at saturation) came out at 4.8 s⁻¹; the kcat/Km (commonly the turnover number divided by the Michaelis constant) is 3430 M⁻¹ s⁻¹. In series [2] (part of the chain shown), the Km worked out at 58 µM, the kcat was 23 s⁻¹ and the kcat/Km worked out at 397000 M⁻¹ s⁻¹.

B2: unnamed (protein)
chain: MDGVLWRVRTAALMAALLALAAWALVWASPSVEAQSNPYQRGPNPTRSALTADGPFSVATYTVSRLSVSGFGGGVIYYPTGTSLTFGGIAMSPGYTADASSLAWLGRRLASHGFVVLVINTNSRFDYPDSRASQLSAALNYLRTSSPSAVRARLDANRLAVAGHSMGGGGTLRIAEQNPSLKAAVPLTPWHTDKTFNTSVPVLIVGAEADTVAPVSQHAIPFYQNLPSTTPKVYVELDNASHFAPNSNNAAISVYTISWMKLWVDNDTRYRQFLCNVNDPALSDFRTNNRHCQ
Turning to B2, in series [1], the Km was 960 µM, the kcat came to 6.2 s⁻¹ and the kcat/Km was 6460 M⁻¹ s⁻¹. In addition, in series [3], the Km was determined as 1200 µM, the kcat is 0.048 s⁻¹ and the kcat/Km was determined as 40 M⁻¹ s⁻¹. In series [2], the Km amounted to 790 µM, the kcat turned out to be 300 s⁻¹ and the kcat/Km was 380000 M⁻¹ s⁻¹.

B3: unnamed (protein)
chain: MAVMTPRRERSSLLSRALQVTAAAATALVTAVSLAAPAHAANPYERGPNPTDALLEASSGPFSVSEENVSRLSASGFGGGTIYYPRENNTYGAVAISPGYTGTEASIAWLGERIASHGFVVITIDTITTLDQPDSRAEQLNAALNHMINRASSTVRSRIDSSRLAVMGHSMGGGGTLRLASQRPDLKAAIPLTPWHLNKNWSSVTVPTLIIGADLDTIAPVATHAKPFYNSLPSSISKAYLELDGATHFAPNIPNKIIGKYSVAWLKRFVDNDTRYTQFLCPGPRDGLFGEVEEYRSTCPF
Regarding B3, in series [1], the Km was found to be 230 µM, the kcat came to 1.1 s⁻¹ and the kcat/Km was determined as 4780 M⁻¹ s⁻¹. In series [3], the Km came out at 3800 µM, the kcat stood at 0.043 s⁻¹ and the kcat/Km was 11.3 M⁻¹ s⁻¹. For the same protein, in series [2], the Km is 170 µM, the kcat was found to be 62 s⁻¹ and the kcat/Km amounted to 365000 M⁻¹ s⁻¹.
